Data on 6 molecules can be found in patent US20250320281A1 (published 2025).

Assay in all cases: cell-based or functional assay
Assay [1] addresses HIV-1 IAVI-C22 Env (pseudovirus) (HIV-1 isolate IAVI-C22).
The target in assay [2] is HIV-1 92UG005 Env (pseudovirus) (HIV-1 isolate 92UG005).
For assay [3], the target named is HIV-1 IAVI-C3 Env (pseudovirus) (HIV-1 isolate IAVI-C3).
Assay [4] addresses HIV-1 IAVI-C18 Env (pseudovirus) (HIV-1 isolate IAVI-C18).
Assay [5] addresses HIV-1 92RW020 Env (pseudovirus) (HIV-1 isolate 92RW020).
Assay [6] deals with HIV-1 APV-6 Env (pseudovirus) (HIV-1 isolate APV-6).
Assay [7] deals with HIV-1 94UG103 Env (pseudovirus) (HIV-1 isolate 94UG103).
Assay [8] addresses HIV-1 92BR020 Env (pseudovirus) (HIV-1 isolate 92BR020).
Assay [9] concerns the target HIV-1 92UG024 Env (pseudovirus) (HIV-1 isolate 92UG024).
The target of assay [10] is HIV-1 APV-13 Env (pseudovirus) (HIV-1 isolate APV-13).
Assay [11] concerns the target HIV-1 92TH021 Env (pseudovirus) (HIV-1 isolate 92TH021).
Assay [12] deals with HIV-1 APV-17 Env (pseudovirus) (HIV-1 isolate APV-17).
The target in assay [13] is HIV-1 93UG077 Env (pseudovirus) (HIV-1 isolate 93UG077).
In assay [14] the target is HIV-1 93IN905 Env (pseudovirus) (HIV-1 isolate 93IN905).
Assay [15] concerns the target HIV-1 CMU02 Env (pseudovirus) (HIV-1 isolate CMU02).
Assay [16] concerns the target HIV-1 93IN905 Env on pseudotyped virus (HIV-1 isolate 93IN905).
For assay [17], the target named is HIV-1 92TH021 Env on pseudotyped virus (HIV-1 isolate 92TH021).
Assay [18] addresses HIV-1 SF162 Env on pseudotyped virus (HIV-1 isolate SF162).
Assay [19] addresses HIV-1 94UG103 Env on pseudotyped virus (HIV-1 isolate 94UG103).
Assay [20] has as its target HIV-1 IAVI_C22 Env on pseudotyped virus (HIV-1 isolate IAVI_C22).
The target of assay [21] is HIV-1 NL43 Env on pseudotyped virus (HIV-1 NL43).
The target of assay [22] is HIV-1 92BR020 Env on pseudotyped virus (HIV-1 isolate 92BR020).

B1: 1495_C14 (PGC14) (antibody, human IgG1, lambda, V domains shown)
VH: DGHLVQSGVEVKKTGATVKISCKVSGYSFIDYYLHWVQRAPGKGLEWVGLIDPENGEARYAEKFQGRVTIIADTSIDTGYMEMRSLKSEDTAVYFCAAGAVGADSGSWFDPWGQGTLVTVSS
VL: SYELTQPPSVSVSPGQTASITCSGSKLGDKYVSWYQLRPGQSPILVMYENDRRPSGIPERFSGSNSGDTATLTISGTQALDEADFYCQAWETTTTTFVFFGGGTQLTVLG
For B1, the “IC50 (µg/mL), pseudovirus neutralization” value is over 50 µg/mL in [1]; over 50 µg/mL in assay [2]; 9.5 µg/mL in [3]; over 50 µg/mL in [4]; 28.6 µg/mL in assay [5]; 7.41 µg/mL in assay [6]. In addition, the “IC50 (µg/mL), pseudovirus neutralization” value in assay [7] was over 50 µg/mL; in assay [8] it was 0.64 µg/mL; in assay [9], over 50 µg/mL; in assay [10], over 50 µg/mL; in assay [11], over 50 µg/mL; in assay [12] it was over 50 µg/mL. Moreover, the “IC50 (µg/mL), pseudovirus neutralization” value in [13], in assay [14] and in assay [15] was over 50 µg/mL each time.

B2: 1460_G14 (PGG14) (antibody, human IgG1, kappa, V domains shown)
VH: QVLLVQSGTEVKKPGSSVKVSCQASGGAFSSYAFSWVRQAPGQGLEWMGMITPVFGETKYAPRFQGRLTLTAEESLSTTYMELRSLTSDDTAFYYCTRDRRVVPMATDNWLDPWGQGTLVTVSS
VL: DIQLTQSPSSLSASVGDRVTVTCRASQTIHTYLNWYQQIPGKAPKLLIYGASTLQSGVPSRFSGSGSGTDFTLTINSLQPEDFATYYCQQSYSTPRTFGQGTRLDIKR
For the molecule B2, the “IC50 (µg/mL), pseudovirus neutralization” value in [1], in [2], in assay [3], in assay [4], in [5] and in [6] was over 50 µg/mL in each case. In addition, the “IC50 (µg/mL), pseudovirus neutralization” value in assay [7], in assay [8], in [9], in assay [10], in assay [11] and in assay [12] was over 50 µg/mL each time. Besides, the “IC50 (µg/mL), pseudovirus neutralization” value in assay [13], in assay [14] and in assay [15] was over 50 µg/mL in each case.

B3: 1456_P20 (PG20) (antibody, human IgG1, kappa, V domains shown)
VH: QVRLVQSGPEVKKPGSSVTVSCQASGGTFSSYAFTWVRQAPGQGLEWLGMVTPIFGEAKYSQRFEGRVTITADESTSTTSIELRGLTSEDTAIYYCARDRRAVPIATDNWLDPWGQGTLVTVSS
VL: DIQLTQSPSSLSASVGDRVSITCRASQTINNYLNWYQQTPGKAPKLLIYGASNLQNGVPSRFSGSGSGTDFTLTISSLQPEDFATYYCQQSFSTPRTFGQGTRLDIKR
On to B3, for which the “IC50 (µg/mL), pseudovirus neutralization” value is over 50 µg/mL in assay [1]; over 50 µg/mL in assay [2]; over 50 µg/mL in [3]; over 50 µg/mL in assay [4]; 50 µg/mL in assay [5]; 25.8 µg/mL in assay [6]. Moreover, the “IC50 (µg/mL), pseudovirus neutralization” value in assay [7], in [8], in [9], in assay [10], in assay [11] and in [12] was over 50 µg/mL in each case. Further, the “IC50 (µg/mL), pseudovirus neutralization” value in assay [13], in [14] and in [15] was over 50 µg/mL each time.

B4: 1460_G14 (PGG14) (antibody, human IgG1, kappa, V domains shown)
VH: QVLLVQSGTEVKKPGSSVKVSCQASGGAFSSYAFSWVRQAPGQGLEWMGMITPVFGETKYAPRFQGRLTLTAEESLSTTYMELRSLTSDDTAFYYCTRDRRVVPMATDNWLDPWGQGTLVTVSS
VL: DIQLTQSPSSLSASVGDRVTVTCRASQTIHTYLNWYQQIPGKAPKLLIYGASTLQSGVPSRFSGSGSGTDFTLTINSLQPEDFATYYCQQSYSTPRTFGQGTRLDIKR
Take B4: the “Neutralizing Antibody Assay: IC50; Virus/Ab Incubation 1 hour” value in assay [16] was over 50 µg/mL; in assay [17], over 50 µg/mL; in assay [18], 0.179 µg/mL; in assay [19], over 50 µg/mL; in assay [20] it was over 50 µg/mL; in assay [21], 0.17 µg/mL. For the same molecule, the “Neutralizing Antibody Assay: IC50; Virus/Ab Incubation 1 hour” value in [22] is over 50 µg/mL. Besides, the “Neutralizing Antibody Assay: IC50; Virus/Ab Incubation 18 hour” value in [16] was 3.17 µg/mL; in assay [17], over 50 µg/mL; in assay [18] it was 0.0573 µg/mL; in [19], over 50 µg/mL; in assay [20] it was over 50 µg/mL; in assay [21] it was 0.05 µg/mL. The “Neutralizing Antibody Assay: IC50; Virus/Ab Incubation 18 hour” value in assay [22] was over 50 µg/mL.

B5: 1443_C16 (PG16) (TCN-116) (antibody, V domains shown)
VH: QEQLVESGGGVVQPGGSLRLSCLASGFTFHKYGMHWVRQAPGKGLEWVALISDDGMRKYHSDSMWGRVTISRDNSKNTLYLQFSSLKVEDTAMFFCAREAGGPIWHDDVKYYDFNDGYYNYHYMDVWGKGTTVTVSS
VL: QSALTQPASVSGSPGQTITISCNGTSSDVGGFDSVSWYQQSPGKAPKVMVFDVSHRPSGISNRFSGSKSGNTASLTISGLHIEDEGDYFCSSLTDRSHRIFGGGTKVTVLG
For the molecule B5, the “IC50 (µg/mL), pseudovirus neutralization” value is 0.069 µg/mL in [1]; over 50 µg/mL in [2]; 14.8 µg/mL in assay [3]; 0.007 µg/mL in assay [4]; 0.004 µg/mL in assay [5]; 0.08 µg/mL in assay [6]. The “IC50 (µg/mL), pseudovirus neutralization” value was 0.008 µg/mL in [7]; over 50 µg/mL in [8]; over 50 µg/mL in assay [9]; over 50 µg/mL in assay [10]; 0.13 µg/mL in assay [11]; over 50 µg/mL in assay [12]. Also, the results for the “IC50 (µg/mL), pseudovirus neutralization” value in [13], in assay [14] and in assay [15] were over 50 µg/mL, 0.1 µg/mL and over 50 µg/mL, respectively.

B6: 1496_C09 (PG9) (TCN-109) (antibody, V domains shown)
VH: QRLVESGGGVVQPGSSLRLSCAASGFDFSRQGMHWVRQAPGQGLEWVAFIKYDGSEKYHADSVWGRLSISRDNSKDTLYLQMNSLRVEDTATYFCVREAGGPDYRNGYNYYDFYDGYYNYHYMDVWGKGTTVTVSS
VL: QSALTQPASVSGSPGQSITISCNGTSNDVGGYESVSWYQQHPGKAPKVVIYDVSKRPSGVSNRFSGSKSGNTASLTISGLQAEDEGDYYCKSLTSTRRRVFGTGTKLTVLG
As to B6, the “IC50 (µg/mL), pseudovirus neutralization” value in [2] was over 50 µg/mL; in assay [3] it was 12.9 µg/mL; in assay [4] it was 0.05 µg/mL; in [5] it was 0.06 µg/mL; in assay [6], 0.09 µg/mL; in assay [7], 0.17 µg/mL. In addition, the “IC50 (µg/mL), pseudovirus neutralization” value was over 50 µg/mL in assay [8]; over 50 µg/mL in assay [10]; 26.4 µg/mL in assay [12]; over 50 µg/mL in assay [13]; over 50 µg/mL in assay [15].
